This is an account of results in patent US20160151452A1.

In one test the target is EphA8-Fc. As to the kind of experiment: SPR, cupredoxin immobilised on CM5 chip, 100 nM Eph-Fc injected. Background: SPR reads the build-up and loss of mass on a sensor chip optically.
For the next test, the target named is EphB1-Fc. The description is as above.
Chain of EphB1-Fc (P09759 18-540): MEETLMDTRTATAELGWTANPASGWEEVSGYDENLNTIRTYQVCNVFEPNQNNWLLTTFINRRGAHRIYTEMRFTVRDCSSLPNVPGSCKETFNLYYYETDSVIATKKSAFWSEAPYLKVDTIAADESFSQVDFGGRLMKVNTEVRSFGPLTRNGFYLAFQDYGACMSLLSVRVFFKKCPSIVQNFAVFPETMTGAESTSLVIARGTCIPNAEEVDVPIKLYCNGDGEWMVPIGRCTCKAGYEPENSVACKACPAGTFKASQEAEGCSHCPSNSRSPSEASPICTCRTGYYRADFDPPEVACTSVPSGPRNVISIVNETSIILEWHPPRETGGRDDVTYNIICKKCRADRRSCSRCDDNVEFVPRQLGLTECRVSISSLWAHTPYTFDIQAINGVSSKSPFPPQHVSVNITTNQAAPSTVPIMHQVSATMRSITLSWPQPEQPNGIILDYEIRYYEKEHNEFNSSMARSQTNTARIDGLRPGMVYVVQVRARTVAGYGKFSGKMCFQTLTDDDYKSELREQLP

Chain of EphA8-Fc (O09127 27-541): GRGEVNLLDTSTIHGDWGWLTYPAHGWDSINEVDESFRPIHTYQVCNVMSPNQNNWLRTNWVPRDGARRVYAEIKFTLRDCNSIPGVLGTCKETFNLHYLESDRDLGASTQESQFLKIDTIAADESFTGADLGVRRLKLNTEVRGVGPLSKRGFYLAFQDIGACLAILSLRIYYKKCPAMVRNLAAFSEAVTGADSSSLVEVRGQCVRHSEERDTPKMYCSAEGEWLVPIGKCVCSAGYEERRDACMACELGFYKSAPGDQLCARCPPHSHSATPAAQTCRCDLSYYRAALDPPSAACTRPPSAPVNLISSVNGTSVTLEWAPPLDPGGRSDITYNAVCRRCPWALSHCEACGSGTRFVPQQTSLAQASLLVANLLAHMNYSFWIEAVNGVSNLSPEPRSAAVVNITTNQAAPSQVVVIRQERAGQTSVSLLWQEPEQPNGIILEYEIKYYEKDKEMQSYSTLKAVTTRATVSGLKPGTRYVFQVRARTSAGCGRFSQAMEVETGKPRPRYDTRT

B1: rusticyanin from Thiobacillus ferrooxidans (protein)
chain: GTLDTTWKEATLPQVKAMLEKDTGKVSGDTVTYSGKTVHVVAAAVLPGFPFPSFEVHDKKNPTLEIPAGATVDVTFINTNKGFGHSFDITKKGPPYAVMPVIDPIVAGTGFSPVPKDGKFGYTDFTWHPTAGTYYYVCQIPGHAATGMFGKIVVK
Consider B1, for which the Req (saturating resonance) with EphA8-Fc and with EphB1-Fc was 79 RU each time.
